In patent US12497461B2, “Human NTCP-binding antibody capable of inhibiting infection of hepatitis B virus (HBV) to human hepatocytes” (priority 2019, dated 2025):
“And” between values parts separate entries of the source, which are not always exact repeats. Identical values can stand only once.

Columns and labels:
[1] = target: T1, human NTCP (Homo sapiens, UniProt Q14973); assay: In vitro bile acid ([3H]-taurocholic acid) uptake in human NTCP-expressing HepG2 (Example 1); format: cell-based
T1 construct: expressed in transfected cells; host or cells: HepG2 cells, lentiviral transduction
T1 sequence (Q14973 1-349): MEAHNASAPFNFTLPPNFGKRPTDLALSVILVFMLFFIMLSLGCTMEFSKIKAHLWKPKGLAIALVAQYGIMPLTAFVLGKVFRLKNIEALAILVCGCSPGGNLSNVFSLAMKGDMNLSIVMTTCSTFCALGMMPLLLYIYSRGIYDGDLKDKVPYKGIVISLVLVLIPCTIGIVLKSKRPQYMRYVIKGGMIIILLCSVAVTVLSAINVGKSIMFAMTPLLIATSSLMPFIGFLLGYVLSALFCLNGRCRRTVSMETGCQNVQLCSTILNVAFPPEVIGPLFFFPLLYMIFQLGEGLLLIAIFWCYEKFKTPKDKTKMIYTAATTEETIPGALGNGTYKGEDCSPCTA

[2] = target: T2, human NTCP Y146A mutant (Homo sapiens, UniProt Q14973, Y146A); assay: Antibody binding to NTCP mutant (epitope mapping); settings: FIG. 5A, left
T2 construct: expressed in transfected cells; host or cells: HepG2 or Huh7 cells, lentiviral transduction
T2 sequence (Q14973 1-349 Y146A): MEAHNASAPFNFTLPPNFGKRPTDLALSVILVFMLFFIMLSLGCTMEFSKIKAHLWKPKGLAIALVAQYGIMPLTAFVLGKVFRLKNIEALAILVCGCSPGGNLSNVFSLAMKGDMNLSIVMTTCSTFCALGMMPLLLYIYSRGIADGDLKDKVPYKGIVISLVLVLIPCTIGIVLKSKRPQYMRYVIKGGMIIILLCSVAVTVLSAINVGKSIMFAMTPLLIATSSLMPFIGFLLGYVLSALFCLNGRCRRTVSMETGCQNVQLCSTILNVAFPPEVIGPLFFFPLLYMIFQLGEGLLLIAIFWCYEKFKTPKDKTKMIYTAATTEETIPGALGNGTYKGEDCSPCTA
Method: To establish NTCP expression cells, HepG2 cells or Huh7 cells were infected with a lentiviral vector having a nucleic acid encoding a wild-type NTCP or each of NTCP mutants. Forty-eight hours after infection, the cells were subjected to an immunofluorescence assay or a viral infection assay.
Huh7 cells expressing a wild-type NTCP or each of the NTCP mutants were fixed with 4% paraformaldehyde, and then, a permeation treatment with 0.3% Triton X-100 was performed. Each of the NTCPs was detected by using N6HB426-20 antibody or HE1-9-10 antibody (dilution ratio: 1:200) and an Alexa Fluor488-conjugate goat anti-mouse IgG antibody (secondary antibody) (Thermo Fisher Scientific) (dilution ratio: 1:1000). Imaging of the cells was carried out by use of a laser scanning confocal microscope using FLUOVIEW fv1000 and IX73 (OLYMPAS).
In this manner, the relationship with a region important for HBV infection was clarified. Sensitivity to HBV infection, a change in inhibitory activity of the antibody and contribution of a predetermined amino acid residue to FACS analysis were evaluated by alanine scanning method and use of an NTCP mutant transfectant. […] However, both ends of the amino acid residues at positions 276-277 (i.e., amino acid residues at positions 274-275 and 278-279) serve as an epitope involved in HBV infection. […] The phenomenon was further precisely analyzed. […]

[3] = test system: HBV; assay: HBV-infection inhibition in human hepatocyte chimeric mouse, serum HBV-DNA; format: in vivo, human hepatocyte chimeric mouse (uPA/SCID); set-up: key to serum HBV DNA level, One week later / serum HBV DNA level, Two weeks later / serum HBV DNA level, Three weeks later / serum HBV DNA level, Four weeks later / serum HBV DNA level, Five weeks later: “—” indicates values below the limit of detection.; “<3.61” indicates values below the limit of quantitation but a specific signal detected indicating an amplification reaction of HBV
Method: (§1) Preparation of uPA/SCID mice and transplantation of human hepatocytes were carried out in accordance with the report (Tateno C. et al., Am. J. Pathol., 165: 901-912, 2004). To all mice, human hepatocytes taken from the same donor were transplanted. Twenty-three mice, which are obtained by replacing 90% or more of the liver tissue with human hepatocytes by transplantation, were used in the experiment. To these mice, human serum containing 10^3 copies of HBV was administered (inoculated) through the tail vein. One day before and two days after HBV inoculation, 2.0 mg of purified N6HB426-20 antibody was intravenously injected. On Day 7, 14, and 21 after the HBV inoculation, 1.0 mg of the same antibody was intraperitoneally injected. As a control experiment, the same dose of normal mouse IgG antibody (Normal Mouse IgG, Whole Molecule, Purified, FUJIFILM Wako Pure Chemical Corporation) was injected in the same manner. A single mouse died on Day 0 after administration was excluded from the experiment. Ten mice for each of the groups, in total, 20 mice, were used. After the HBV inoculation, the serum was collected every week. Note that, 3 mice were used for confirmation of infection and not administered with a drug.
(§2) For quantification of HBV-DNA, 10 μL of mouse serum was used. Mouse serum was diluted with 690 μL of PBS and DNA was extracted. The serum HBV-DNA level was measured by a real-time PCR method using cobas 6800 System (Roche Diagnostics KK, Tokyo, Japan). In this measurement method, the lower limit of quantification was 3.61 log copies/mL. Mouse serum (10 μL) was diluted 30 folds with PBS and bile acid was measured.

[4] = format: in vivo, human hepatocyte chimeric mouse (uPA/SCID); settings: administration group; highest at HBV inoculation, decreased on and after the first week
Method: as §1, with “Ten mice for each of the groups, in total, 20 mice, were used. After the HBV inoculation, the serum was collected every week. Note that, 3 mice were used for confirmation of infection and not administered with a drug.” left out
as §2, with “Mouse serum was diluted with 690 μL of PBS and DNA was extracted.” left out

B1: N6HB426-20 antibody: anti-human NTCP monoclonal antibody from a sub-clone of N6HB426 hybridoma; VH SEQ ID NO: 3, VL SEQ ID NO: 4 (antibody, V domains shown)
VH: QVQLQQSGAELVKPGASVKLSCKASDFTFTEYTIHWIKQMSGQGLEWIGWFYPGSGDIKYSEKFKDKATLTADKSSSTVYMELNRLTSEDSAVYFCARHMRDFRGFYYGRFYFDYWGQGTTLTVSS
VL: EIVLTQSPAIMSASPGEKVTITCRASSSVSSSYLHWYQQKSGVSPKLWIYSTSNLASGVPARFSGSGSGTSYSLTINSVEAEDAATYYCQQYSGYRWTFGGGTTLEIKRA
modifications: N6HB426 antibody heavy chain variable region; N6HB426 antiibody light chain variable region
inhibition of bile acid uptake ([1]; 1000 nM, 1 µM): 3% | inhibition of bile acid uptake ([1]; 1000 nM, listed as purified N6HB426 antibody, 1 µM): at most 2% | inhibition of bile acid uptake ([1]; at concentration required for inhibition of infection (IC50 20 to 30 nM)): virtually did not inhibit | binding to single mutant Y146A [2]: significantly low binding | serum HBV-DNA in the 4th week after HBV inoculation ([3]; all of the 10 mice of the group): not detected | serum HBV DNA level, Five weeks later ([3]; test group, individual mice, five weeks after HBV inoculation): — (8×) and <3.61 log copies/mL | serum HBV DNA level, Four weeks later ([3]; test group, individual mice, four weeks after HBV inoculation): — | serum HBV DNA level, One week later ([3]; test group, individual mice, one week after HBV inoculation): — | serum HBV DNA level, Three weeks later ([3]; test group, individual mice, three weeks after HBV inoculation): — | serum HBV DNA level, Two weeks later ([3]; test group, individual mice, two weeks after HBV inoculation): — | bile acid level in the sera [4]: transient increase
